Measurements reported in PMC3821912.

Target: areca nut (AN) peroxidase (Areca catechu L.)
Assay: native gel or EMSA; native gel without heating or reducing agent; zymogram (20 mM guaiacol, 5 mM H2O2) and Coomassie staining; enzyme desalted with HEPES buffer (20 mM, pH 7.9); dimer to monomers

stoichiometry N: 2
Substance: areca nut (AN) peroxidase (enzyme)
